# Assay results as given in patent publication US20040054158A1 (GENETICS INSTITUTE, published 2004).
# T1: mouse B7-2 on WEHI 231 cells (mouse, UniProt P42082 24-309)
# T1 construct: whole, on cells; also called CD86
# T1 sequence (looked up): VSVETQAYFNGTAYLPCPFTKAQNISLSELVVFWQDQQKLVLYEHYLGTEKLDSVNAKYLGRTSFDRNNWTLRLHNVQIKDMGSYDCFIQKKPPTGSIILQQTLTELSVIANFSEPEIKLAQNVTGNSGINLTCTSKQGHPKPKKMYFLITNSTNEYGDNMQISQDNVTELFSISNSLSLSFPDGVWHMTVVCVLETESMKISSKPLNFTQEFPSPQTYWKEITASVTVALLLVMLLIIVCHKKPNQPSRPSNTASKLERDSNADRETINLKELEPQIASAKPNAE
# T2: mouse B7-1 on cells (WEHI 231, undifferentiated ES cells) (mouse, UniProt Q00609 38-306)
# T2 construct: whole, on cells; also called CD80
# T2 sequence (looked up): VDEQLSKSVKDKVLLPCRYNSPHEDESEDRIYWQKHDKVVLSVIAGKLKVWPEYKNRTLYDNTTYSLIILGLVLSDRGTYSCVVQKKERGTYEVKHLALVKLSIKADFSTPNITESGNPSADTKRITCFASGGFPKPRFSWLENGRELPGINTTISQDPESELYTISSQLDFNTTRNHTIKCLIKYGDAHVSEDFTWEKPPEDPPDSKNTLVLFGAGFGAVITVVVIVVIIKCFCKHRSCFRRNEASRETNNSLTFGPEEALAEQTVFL
# T3: murine GL50-1 (mGL50-1) expressed on transfected COS cells (mouse, UniProt Q9JHJ8 47-322)
# T3 construct: 322 amino acid protein
# T3 sequence: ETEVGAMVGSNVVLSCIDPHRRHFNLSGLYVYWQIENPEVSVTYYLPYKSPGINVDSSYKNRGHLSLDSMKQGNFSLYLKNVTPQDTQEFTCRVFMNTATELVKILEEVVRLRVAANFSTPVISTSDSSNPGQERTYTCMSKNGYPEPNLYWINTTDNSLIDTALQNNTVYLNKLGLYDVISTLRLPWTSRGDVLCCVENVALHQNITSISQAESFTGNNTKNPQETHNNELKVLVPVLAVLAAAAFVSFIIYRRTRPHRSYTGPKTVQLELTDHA
# T4: murine GL50-2 (mGL50-2) expressed on transfected COS cells (mouse, UniProt Q9JHJ8 44-320)
# T4 construct: Alternatively spliced form of 347 residues; also called mGL50-B
# T4 sequence: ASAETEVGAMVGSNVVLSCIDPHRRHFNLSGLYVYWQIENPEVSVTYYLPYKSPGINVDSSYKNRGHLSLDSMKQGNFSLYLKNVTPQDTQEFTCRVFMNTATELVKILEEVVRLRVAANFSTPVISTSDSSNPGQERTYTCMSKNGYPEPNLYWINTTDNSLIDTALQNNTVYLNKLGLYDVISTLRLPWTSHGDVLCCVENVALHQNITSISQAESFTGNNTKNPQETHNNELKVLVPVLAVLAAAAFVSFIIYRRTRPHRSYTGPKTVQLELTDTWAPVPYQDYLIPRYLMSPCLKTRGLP
# T5: CD28-Ig (mouse, UniProt P31041 20-150)
# T5 construct: not shown: Ig part not described
# T5 sequence (looked up): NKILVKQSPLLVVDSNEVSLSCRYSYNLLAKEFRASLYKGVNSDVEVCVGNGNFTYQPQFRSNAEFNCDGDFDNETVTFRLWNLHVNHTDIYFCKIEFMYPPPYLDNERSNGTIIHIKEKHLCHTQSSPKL
# B1: human DAP-12 expressed on transfected COS cells (other, UniProt O43914 22-113, looked up)
# chain: LRPVQAQAQSDCSCSTVSPGVLAGIVMGDLVLTVLIALAVYFLGRLVPRGRGAAEAATRKQRITETESPYQELQGQRSDVYSDLNTQRPYYK
# notes: whole, on cells; Negative control transfectant
# Columns and labels:
# [1] = biological target: B1; assay: flow cytometry on transfected COS cells
# [2] = biological target: T1, mouse B7-2 on WEHI 231 cells; assay: flow cytometry on WEHI 231 cells with blocking anti B7-1 and B7-2 antibodies
# [3] = biological target: T2, mouse B7-1 on cells (WEHI 231, …); assay: as above
# [4] = biological target: T3, murine GL50-1 (mGL50-1) expressed on …; assay: flow cytometry on transfected COS cells
# [5] = biological target: T4, murine GL50-2 (mGL50-2) expressed on …; assay: flow cytometry on transfected COS cells
# CD28-Ig = biological target: T5, CD28-Ig; assay: flow cytometry on transfected COS cells
binder,measurement,setting,value
"mICOS-mIgG2am (Fc fusion, Fusion of mouse ICOS with a mouse IgG2a domain mutated to reduce effector function; also called ICOS-Ig; ICOS Ig) EINGSADHRMFSFHNGGVQISCKYPETVQQLKMRLFREREVLCELTKTKGSGNAVSIKNPMLCLYHLSNNSVSFFLNNPDSSQGSYYFCSLSIFDPPPFQERNLSGGYLHIYESQLCCQLKLEPRGPTIKPCPPCKCPAPNLEGGPSVFIFPPKIKDVLMISLSPIVTCVVVDVSEDDPDVQISWFVNNVEVHTAQTQTHREDYNSTLRVVSALPIQHQDWMSGKAFACAVNNKDLPAPIERTISKPKGSVRAPQVYVLPPPEEEMTKKQVTLTCMVTDFMPEDIYVEWTNNGKTELNYKNTEPVLDSDGSYFMYSKLRVEKKNWVERNSYSCSVVHEGLHNHHTTKSFSRTPGK",binding result,[1],no binding (tested: 5 µg/ml of fusion protein)
same,binding result,[2],no binding
same,binding result,[3],no binding
"hICOS-mIgG2am (Fc fusion, Fusion of human ICOS with the mutated mouse IgG2a domain) EINGSANYEMFIFHNGGVQILCKYPDIVQQFKMQLLKGGQILCDLTKTKGSGNTVSIKSLKFCHSQLSNNSVSFFLYNLDHSHANYYFCNLSIFDPPPFKVTLTGGYLHIYESQLCCQLKFEPRGPTIKPCPPCKCPAPNLEGGPSVFIFPPKIKDVLMISLSPIVTCVVVDVSEDDPDVQISWFVNNVEVHTAQTQTHREDYNSTLRVVSALPIQHQDWMSGKAFACAVNNKDLPAPIERTISKPKGSVRAPQVYVLPPPEEEMTKKQVTLTCMVTDFMPEDIYVEWTNNGKTELNYKNTEPVLDSDGSYFMYSKLRVEKKNWVERNSYSCSVVHEGLHNHHTTKSFSRTPGK",binding result,[4],binds
same,binding result,[5],binds
B1,binding result,CD28-Ig,no binding (tested: 5 µg/ml of fusion protein)
